Assay results: patent US11007356B2, “Ingestible device for delivery of therapeutic agent to the gastrointestinal tract” (Progenity, Inc., priority 2018, dated 2021)
Several values for one entry are separate records, joined by “and”; a condition that tells them apart may be missing. Equal values may be shown once. Read-outs that look alike come from different tables or passages of the source. Marks after values point to notes of the source that are not given here.

How the values were obtained:
[1] = Dosing regimen model: required bioavailability for ingestible device (Tables 16, 17); conditions: for Eff Dose: approved dose x bioavailability of the approved route (Table 16); for Eff. Dose: baseline dose x bioavailability, SC (Table 17), assumed weight 70 kg
[2] = cited from earlier work
[3] = Insulin PK after SC or intra-jejunal (IJ) jet delivery in swine (Example 3); format: in vivo, Yorkshire female swine; conditions: for Cmax of blood insulin, Average / Tmax of blood insulin, Average: average of animals; for Cmax of blood insulin / Tmax of blood insulin: individual animals
Experimental: A total of 18 Yorkshire female swine in good health and weighing 60-70 kg each were included in this study. Swine were divided into two groups with 9 animals per group. […] A sham surgical laparotomy was performed. […] The jet delivery device was configured with the single nozzle in an axial orientation.
Swine were divided into two groups with 9 animals per group. […] In all 18 animals, a laparotomy procedure was performed to expose the abdominal cavity. Animals remained under anesthesia during the entire procedure for the PK/PD study.
For the laparotomy in group 02, a small segment of the jejunal mucosa and serosa was exposed by midline laparotomy and the jet delivery device was inserted through antimesenteric incision.
(§1) Blood samples were kept on wet ice until centrifugation and separation of plasma. […] Glucose was monitored every five (5) minutes during the study by portable glucose analyzer (StatStrip (SS) hospital glucose monitoring system (Nova Biomedical, Waltham, Mass.)). At each time point, approximate 0.1 mL of blood was drawn and immediately placed on a glucose monitoring test strip, and the whole blood glucose concentration was measured by the SS in triplicate.
The animals were anesthetized for the entire ECP.

blood glucose = test: Euglycemic clamp procedure (PD) in swine (Example 3); format: in vivo, Yorkshire female swine
Experimental: as §1
A euglycemic clamp procedure (ECP) was employed to compare pharmacokinetics and pharmacodynamics of regular human Insulin (NOVOLIN® R) delivered subcutaneously (SC) in the neck versus intra-jejunally (IJ) by the jet delivery device in the small intestine. ECP was used to quantify the amount of glucose required to maintain normoglycemia after exogenous bolus of insulin. […] The animals were anesthetized for the entire ECP.

[4] = pig, in vivo
[5] = IJ administration via jet delivery device, ~40 U
[6] = SC administration group compared with IJ administration group

Compound: denosumab
- Eff Dose [1]: 36.6 mg
- Bio Avail (Approved Dosing Info) ([2]; in vivo, sc): 61%

Compound: Novolin® R: regular human insulin (NOVOLIN® R)
- Cmax of blood insulin, Average [3, 5]: 77.40 uIU/mL
- Tmax of blood insulin, Average [3, 5]: 0.9272 h
- Cmax of blood insulin [3, 5]: 40.93 uIU/mL and 96.77 uIU/mL and 5.03 uIU/mL and 7.96 uIU/mL and 48.77 uIU/mL and 85.38 uIU/mL and 207.96 uIU/mL and 126.39 uIU/mL
- Tmax of blood insulin [3, 5]: 20 min and 50 min and 90 min (2×) and 40 min (3×)
- AUC of blood insulin, SC vs IJ [3, 6]: higher than that of the IJ administration group
- maximum plasma concentration Cmax, SC vs IJ [3, 6]: higher than that of the IJ administration group
- Cmax of blood insulin, Average ([3]; SC administration): 202.94 uIU/mL
- Tmax of blood insulin, Average ([3]; SC administration): 1.452 h
- Cmax of blood insulin ([3]; SC administration): 451.00 uIU/mL and 60.74 uIU/mL and 354.00 uIU/mL and 356.60 uIU/mL and 65.71 uIU/mL and 59.18 uIU/mL and 73.34 uIU/mL
- Tmax of blood insulin ([3]; SC administration): 50 min (2×) and 180 min and 105 min and 30 min and 120 min
- time to maximum plasma concentration (Tmax) ([3]; jejunum administration group (jet delivery device)): 0.9272 h
- mean dextrose infusion rate, IJ vs SC (blood glucose; first 70 minutes after administration): higher in the IJ administration group
- mean dextrose infusion rate, IJ vs SC (blood glucose; from 75 minutes to 420 minutes post-administration): higher in the SC administration group

Compound: CC[C@H](C)[C@H](NC(=O)[C@H](CCC(=O)O)NC(=O)[C@H](CO)NC(=O)[C@@H](NC(=O)[C@@H](N)CO)C(C)C)C(=O)N[C@@H](CCC(N)=O)C(=O)N[C@@H](CC(C)C)C(=O)N[C@@H](CCSC)C(=O)N[C@@H](Cc1cnc[nH]1)C(=O)N[C@@H](CC(N)=O)C(=O)N[C@@H](CC(C)C)C(=O)NCC(=O)N[C@@H](CCCCN)C(=O)N[C@@H](Cc1cnc[nH]1)C(=O)N[C@@H](CC(C)C)C(=O)N[C@@H](CC(N)=O)C(=O)N[C@@H](CO)C(=O)N[C@@H](CCSC)C(=O)N[C@@H](CCC(=O)O)C(=O)N[C@@H](CCCN=C(N)N)C(=O)N[C@H](C(=O)N[C@@H](CCC(=O)O)C(=O)N[C@@H](Cc1c[nH]c2ccccc12)C(=O)N[C@@H](CC(C)C)C(=O)N[C@@H](CCCN=C(N)N)C(=O)N[C@@H](CCCCN)C(=O)N[C@@H](CCCCN)C(=O)N[C@@H](CC(C)C)C(=O)N[C@@H](CCC(N)=O)C(=O)N[C@@H](CC(=O)O)C(=O)N[C@H](C(=O)N[C@@H](Cc1cnc[nH]1)C(=O)N[C@@H](CC(N)=O)C(=O)N[C@@H](Cc1ccccc1)C(=O)O)C(C)C)C(C)C [teriparatide]
- Eff Dose [1]: 0.02 mg
- Bio Avail (Approved Dosing Info) ([2]; SC administration): 95%

Compound: natalizumab
- Eff Dose [1]: 300 mg
- Bio Avail (Approved Dosing Info) ([2]; in vivo, iv): 100%

Compound: golimumab
- Eff Dose [1]: 25.5 mg
- Bio Avail (Approved Dosing Info) ([2]; in vivo, sc): 51%

Compound: alirocumab
- Eff Dose [1]: 63.8 mg
- Bio Avail (Approved Dosing Info) ([2]; in vivo, sc): 85%

Compound: certolizumab pegol
- Eff Dose [1]: 160 mg
- Bio Avail (Approved Dosing Info) ([2]; in vivo, sc): 80%

Compound: glucagon
- Eff. Dose [1]: 2.0 mg
- Bioavail. (Baseline dose) ([2]; in vivo, sc): 100.0%

Compound: secukinumab
- Eff Dose [1]: 109.5 mg
- Bio Avail (Approved Dosing Info) ([2]; in vivo, sc): 73%

Compound: dulaglutide
- Bioavailability relative to IV [4]: 26.51 ± 6.55% ^a
- Bioavailability relative to SC [4]: 49.11 ± 0.08% ^a
- (AUC)T0-T240 h ± SEM ([4]; 1.2 mg): 4355.86 ± 1094.57^a ng.hr/mL
- AUCID (± SEM) ([4]; 1.2 mg): 3890.00 ± 94.73 ng·h/mL
- Tmax ([4]; 1.2 mg): 8 h
- (AUC)T0-T240 h ± SEM ([4]; iv, 1.2 mg): 16429.33 ± 600.93 ng·h/mL
- Tmax ([4]; iv, 1.2 mg): 1 h
- (AUC)T0-T240 h ± SEM ([4]; sc, 1.2 mg): 8869 ± 887.33 ng·h/mL
- Tmax ([4]; sc, 1.2 mg): 6 h
- Eff Dose [1]: 0.49 mg
- Bio Avail (Approved Dosing Info) ([2]; in vivo, sc): 65%

Compound: CC[C@H](C)[C@H](NC(=O)[C@H](Cc1ccccc1)NC(=O)[C@H](CCC(=O)O)NC(=O)[C@H](CCCCNC(=O)COCCOCCNC(=O)COCCOCCNC(=O)CC[C@H](NC(=O)CCCCCCCCCCCCCCCCC(=O)O)C(=O)O)NC(=O)[C@H](C)NC(=O)[C@H](C)NC(=O)[C@H](CCC(N)=O)NC(=O)CNC(=O)[C@H](CCC(=O)O)NC(=O)[C@H](CC(C)C)NC(=O)[C@H](Cc1ccc(O)cc1)NC(=O)[C@H](CO)NC(=O)[C@H](CO)NC(=O)[C@@H](NC(=O)[C@H](CC(=O)O)NC(=O)[C@H](CO)NC(=O)[C@@H](NC(=O)[C@H](Cc1ccccc1)NC(=O)[C@@H](NC(=O)CNC(=O)[C@H](CCC(=O)O)NC(=O)C(C)(C)NC(=O)[C@@H](N)Cc1cnc[nH]1)[C@@H](C)O)[C@@H](C)O)C(C)C)C(=O)N[C@@H](C)C(=O)N[C@@H](Cc1c[nH]c2ccccc12)C(=O)N[C@@H](CC(C)C)C(=O)N[C@H](C(=O)N[C@@H](CCCNC(=N)N)C(=O)NCC(=O)N[C@@H](CCCNC(=N)N)C(=O)NCC(=O)O)C(C)C [Semaglutide, semaglutide]
- Bio Avail (Approved Dosing Info) ([2]; in vivo, sc): 89%

Compound: somatropin
- Eff. Dose [1]: 0.8 mg
- Bioavail. (Baseline dose) ([2]; in vivo, sc): 80.5%

Compound: etanercept
- Eff Dose [1]: 29.0 mg
- Bio Avail (Approved Dosing Info) ([2]; in vivo, sc): 58%

Compound: tocilizumab
- Eff Dose [1]: 129.6 mg
- Bio Avail (Approved Dosing Info) ([2]; in vivo, sc): 80%

Compound: vedolizumab
- Eff Dose [1]: 300 mg
- Bio Avail (Approved Dosing Info) ([2]; in vivo, iv): 100%

Compound: ustekinumab
- Eff Dose [1]: 35.1 mg
- Bio Avail (Approved Dosing Info) ([2]; in vivo, sc): 78%
